Assay results taken from patent publication US10005817.

Target: PTH receptor (PTHR1) (human) (UniProt Q03431)
Assay: cell-based or functional assay

Sequence of PTH receptor (PTHR1) (human) (Q03431 27-593): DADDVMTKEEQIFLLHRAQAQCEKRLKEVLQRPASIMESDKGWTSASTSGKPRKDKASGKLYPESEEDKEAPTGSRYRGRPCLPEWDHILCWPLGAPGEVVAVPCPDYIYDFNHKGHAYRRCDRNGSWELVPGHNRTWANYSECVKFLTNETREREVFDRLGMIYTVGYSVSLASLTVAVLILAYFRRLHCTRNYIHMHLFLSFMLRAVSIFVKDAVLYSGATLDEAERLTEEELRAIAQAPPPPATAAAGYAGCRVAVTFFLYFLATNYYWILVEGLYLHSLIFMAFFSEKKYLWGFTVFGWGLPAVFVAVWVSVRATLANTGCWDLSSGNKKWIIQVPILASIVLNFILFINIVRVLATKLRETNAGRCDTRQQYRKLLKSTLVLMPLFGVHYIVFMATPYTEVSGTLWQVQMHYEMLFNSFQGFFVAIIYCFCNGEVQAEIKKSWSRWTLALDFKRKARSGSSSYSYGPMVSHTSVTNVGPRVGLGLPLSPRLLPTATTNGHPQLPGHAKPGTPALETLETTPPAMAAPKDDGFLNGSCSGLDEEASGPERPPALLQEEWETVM

maximal response: 105%
Substance: PTH (internal standard) (ligand)
